Measured values taken from patent US7558625B2, “Combined micro-channel generation and iontophoresis for transdermal delivery of pharmaceutical agents” (TransPharma Medical Ltd., priority 2004, dated 2009).

Experiment: Transdermal delivery of hGH by ViaDerm and iontophoresis in anesthetized pigs, plasma hGH
Format: in vivo
Design: average AUC: unit: ng×hr/ml
Experimental: ViaDerm applications were performed on 8 adjacent sites on the marginal ear of each of the pigs using 80 μm electrodes and 2 bursts.
2 groups of pigs (males, 10-15 kg, large white) were tested: • Group 1: SC (250 μg)—3 pigs (no. 3, 9 and 25). • Group 2: ViaDerm and then iontophoresis was applied 5 times, each iontophoresis patch contained 22.5 mg (22.5×5; total of 112.5 mg)—3 pigs (no. 19, 20 and 21). Results

[1] = pigs, ViaDerm and Iontophoresis group, 5 consecutive patches

hGH: human growth hormone (Genotropin, Pharmacia and Upjohn)
hGH plasma levels (SC 0.25 mg hGH, pig3, 0 h): 0.14 ng/mL
hGH plasma levels (SC 0.25 mg hGH, pig3, 1 h): 6.40 ng/mL
hGH plasma levels (SC 0.25 mg hGH, pig3, 2 h): 10.57 ng/mL
hGH plasma levels (SC 0.25 mg hGH, pig3, 3 h): 6.02 ng/mL
hGH plasma levels (SC 0.25 mg hGH, pig3, 4 h): 5.39 ng/mL
hGH plasma levels (SC 0.25 mg hGH, pig3, 5 h): 2.57 ng/mL
hGH plasma levels (SC 0.25 mg hGH, pig3, 6 h): 3.35 ng/mL
hGH plasma levels (SC 0.25 mg hGH, pig3, 7 h): 2.40 ng/mL
hGH plasma levels (SC 0.25 mg hGH, pig3, 8 h): 2.00 ng/mL
hGH plasma levels (SC 0.25 mg hGH, pig3, 9 h): 1.48 ng/mL
hGH plasma levels (SC 0.25 mg hGH, pig3, 10 h): 1.18 ng/mL
hGH plasma levels (SC 0.25 mg hGH, pig3, 11 h): 1.49 ng/mL
hGH plasma levels (SC 0.25 mg hGH, pig3, 12 h): 1.75 ng/mL
hGH plasma levels (SC 0.25 mg hGH, pig9, 0 h): 0.08 ng/mL
hGH plasma levels (SC 0.25 mg hGH, pig9, 1 h): 22.96 ng/mL
hGH plasma levels (SC 0.25 mg hGH, pig9, 2 h): 18.06 ng/mL
hGH plasma levels (SC 0.25 mg hGH, pig9, 3 h): 15.88 ng/mL
hGH plasma levels (SC 0.25 mg hGH, pig9, 4 h): 12.39 ng/mL
hGH plasma levels (SC 0.25 mg hGH, pig9, 5 h): 9.85 ng/mL
hGH plasma levels (SC 0.25 mg hGH, pig9, 6 h): 6.53 ng/mL
hGH plasma levels (SC 0.25 mg hGH, pig9, 7 h): 6.31 ng/mL
hGH plasma levels (SC 0.25 mg hGH, pig9, 8 h): 4.19 ng/mL
hGH plasma levels (SC 0.25 mg hGH, pig9, 9 h): 2.58 ng/mL
hGH plasma levels (SC 0.25 mg hGH, pig9, 10 h): 1.83 ng/mL
hGH plasma levels (SC 0.25 mg hGH, pig9, 11 h): 1.25 ng/mL
hGH plasma levels (SC 0.25 mg hGH, pig9, 12 h): 0.88 ng/mL
hGH plasma levels (SC 0.25 mg hGH, pig25, 0 h): 0.10 ng/mL
hGH plasma levels (SC 0.25 mg hGH, pig25, 1 h): 38.06 ng/mL
hGH plasma levels (SC 0.25 mg hGH, pig25, 2 h): 31.00 ng/mL
hGH plasma levels (SC 0.25 mg hGH, pig25, 3 h): 16.32 ng/mL
hGH plasma levels (SC 0.25 mg hGH, pig25, 4 h): 13.40 ng/mL
hGH plasma levels (SC 0.25 mg hGH, pig25, 5 h): 8.69 ng/mL
hGH plasma levels (SC 0.25 mg hGH, pig25, 6 h): 6.66 ng/mL
hGH plasma levels (SC 0.25 mg hGH, pig25, 7 h): 3.89 ng/mL
hGH plasma levels (SC 0.25 mg hGH, pig25, 8 h): 2.76 ng/mL
hGH plasma levels (SC 0.25 mg hGH, pig25, 9 h): 1.67 ng/mL
hGH plasma levels (SC 0.25 mg hGH, pig25, 10 h): 1.19 ng/mL
hGH plasma levels (SC 0.25 mg hGH, pig25, 11 h): 1.09 ng/mL
hGH plasma levels (SC 0.25 mg hGH, pig25, 12 h): 0.78 ng/mL
hGH plasma levels (SC 0.25 mg hGH, pigs, Average, 0 h): 0.1 ng/mL
hGH plasma levels (SC 0.25 mg hGH, pigs, Average, 1 h): 22.5 ng/mL
hGH plasma levels (SC 0.25 mg hGH, pigs, Average, 2 h): 19.9 ng/mL
hGH plasma levels (SC 0.25 mg hGH, pigs, Average, 3 h): 12.7 ng/mL
hGH plasma levels (SC 0.25 mg hGH, pigs, Average, 4 h): 10.4 ng/mL
hGH plasma levels (SC 0.25 mg hGH, pigs, Average, 5 h): 7.0 ng/mL
hGH plasma levels (SC 0.25 mg hGH, pigs, Average, 6 h): 5.5 ng/mL
hGH plasma levels (SC 0.25 mg hGH, pigs, Average, 7 h): 4.2 ng/mL
hGH plasma levels (SC 0.25 mg hGH, pigs, Average, 8 h): 3.0 ng/mL
hGH plasma levels (SC 0.25 mg hGH, pigs, Average, 9 h): 1.9 ng/mL
hGH plasma levels (SC 0.25 mg hGH, pigs, Average, 11 h): 1.3 ng/mL
hGH plasma levels (SC 0.25 mg hGH, pigs, Average, 12 h): 1.1 ng/mL
average AUC (SC 250 μg, 3 pigs): 90.3
AUC (SC 250 μg, pig no. 3): 44 ng·h/mL
AUC (SC 250 μg, pig no. 9): 102 ng·h/mL
AUC (SC 250 μg, pig no. 25): 125 ng·h/mL
Amount delivered (SC 250 μg, pigs): 250 µg
average AUC (ViaDerm, Ionto 22.5 mg × 5, 3 pigs): 210.3
AUC (ViaDerm, Ionto 22.5 mg × 5, pig no. 19): 138 ng·h/mL
AUC (ViaDerm, Ionto 22.5 mg × 5, pig no. 20): 215 ng·h/mL
AUC (ViaDerm, Ionto 22.5 mg × 5, pig no. 21): 278 ng·h/mL
Amount delivered (ViaDerm, Ionto 22.5 mg × 5, pigs): 589 µg
hGH plasma levels (ViaDerm, Iontoph. × 5 Total 112.5 mg hGH, pig19, 0 h): 0.04 ng/mL
hGH plasma levels (ViaDerm, Iontoph. × 5 Total 112.5 mg hGH, pig19, 1 h): 8.39 ng/mL
hGH plasma levels (ViaDerm, Iontoph. × 5 Total 112.5 mg hGH, pig19, 2 h): 18.46 ng/mL
hGH plasma levels (ViaDerm, Iontoph. × 5 Total 112.5 mg hGH, pig19, 3 h): 24.50 ng/mL
hGH plasma levels (ViaDerm, Iontoph. × 5 Total 112.5 mg hGH, pig19, 4 h): 25.34 ng/mL
hGH plasma levels (ViaDerm, Iontoph. × 5 Total 112.5 mg hGH, pig19, 5 h): 25.27 ng/mL
hGH plasma levels (ViaDerm, Iontoph. × 5 Total 112.5 mg hGH, pig19, 6 h): 13.34 ng/mL
hGH plasma levels (ViaDerm, Iontoph. × 5 Total 112.5 mg hGH, pig19, 7 h): 9.63 ng/mL
hGH plasma levels (ViaDerm, Iontoph. × 5 Total 112.5 mg hGH, pig19, 8 h): 4.03 ng/mL
hGH plasma levels (ViaDerm, Iontoph. × 5 Total 112.5 mg hGH, pig19, 9 h): 4.08 ng/mL
hGH plasma levels (ViaDerm, Iontoph. × 5 Total 112.5 mg hGH, pig19, 10 h): 3.32 ng/mL
hGH plasma levels (ViaDerm, Iontoph. × 5 Total 112.5 mg hGH, pig19, 11 h): 1.42 ng/mL
hGH plasma levels (ViaDerm, Iontoph. × 5 Total 112.5 mg hGH, pig19, 12 h): 1.38 ng/mL
hGH plasma levels (ViaDerm, Iontoph. × 5 Total 112.5 mg hGH, pig20, 0 h): 0.06 ng/mL
hGH plasma levels (ViaDerm, Iontoph. × 5 Total 112.5 mg hGH, pig20, 1 h): 7.01 ng/mL
hGH plasma levels (ViaDerm, Iontoph. × 5 Total 112.5 mg hGH, pig20, 2 h): 22.45 ng/mL
hGH plasma levels (ViaDerm, Iontoph. × 5 Total 112.5 mg hGH, pig20, 3 h): 26.93 ng/mL
hGH plasma levels (ViaDerm, Iontoph. × 5 Total 112.5 mg hGH, pig20, 4 h): 31.04 ng/mL
hGH plasma levels (ViaDerm, Iontoph. × 5 Total 112.5 mg hGH, pig20, 5 h): 28.21 ng/mL
hGH plasma levels (ViaDerm, Iontoph. × 5 Total 112.5 mg hGH, pig20, 6 h): 22.09 ng/mL
hGH plasma levels (ViaDerm, Iontoph. × 5 Total 112.5 mg hGH, pig20, 7 h): 44.00 ng/mL
hGH plasma levels (ViaDerm, Iontoph. × 5 Total 112.5 mg hGH, pig20, 8 h): 10.69 ng/mL
hGH plasma levels (ViaDerm, Iontoph. × 5 Total 112.5 mg hGH, pig20, 9 h): 8.98 ng/mL
hGH plasma levels (ViaDerm, Iontoph. × 5 Total 112.5 mg hGH, pig20, 10 h): 6.49 ng/mL
hGH plasma levels (ViaDerm, Iontoph. × 5 Total 112.5 mg hGH, pig20, 11 h): 4.91 ng/mL
hGH plasma levels (ViaDerm, Iontoph. × 5 Total 112.5 mg hGH, pig20, 12 h): 5.01 ng/mL
hGH plasma levels (ViaDerm, Iontoph. × 5 Total 112.5 mg hGH, pig21, 0 h): 0.08 ng/mL
hGH plasma levels (ViaDerm, Iontoph. × 5 Total 112.5 mg hGH, pig21, 1 h): 2.68 ng/mL
hGH plasma levels (ViaDerm, Iontoph. × 5 Total 112.5 mg hGH, pig21, 2 h): 10.38 ng/mL
hGH plasma levels (ViaDerm, Iontoph. × 5 Total 112.5 mg hGH, pig21, 3 h): 24.52 ng/mL
hGH plasma levels (ViaDerm, Iontoph. × 5 Total 112.5 mg hGH, pig21, 4 h): 28.87 ng/mL
hGH plasma levels (ViaDerm, Iontoph. × 5 Total 112.5 mg hGH, pig21, 5 h): 44.93 ng/mL
hGH plasma levels (ViaDerm, Iontoph. × 5 Total 112.5 mg hGH, pig21, 6 h): 34.25 ng/mL
hGH plasma levels (ViaDerm, Iontoph. × 5 Total 112.5 mg hGH, pig21, 7 h): 33.54 ng/mL
hGH plasma levels (ViaDerm, Iontoph. × 5 Total 112.5 mg hGH, pig21, 8 h): 28.93 ng/mL
hGH plasma levels (ViaDerm, Iontoph. × 5 Total 112.5 mg hGH, pig21, 9 h): 24.89 ng/mL
hGH plasma levels (ViaDerm, Iontoph. × 5 Total 112.5 mg hGH, pig21, 10 h): 22.46 ng/mL
hGH plasma levels (ViaDerm, Iontoph. × 5 Total 112.5 mg hGH, pig21, 11 h): 17.86 ng/mL
hGH plasma levels (ViaDerm, Iontoph. × 5 Total 112.5 mg hGH, pig21, 12 h): 9.00 ng/mL
hGH plasma levels (ViaDerm, Iontoph. × 5 Total 112.5 mg hGH, pigs, Average, 0 h): 0.06 ng/mL
hGH plasma levels (ViaDerm, Iontoph. × 5 Total 112.5 mg hGH, pigs, Average, 1 h): 6.03 ng/mL
hGH plasma levels (ViaDerm, Iontoph. × 5 Total 112.5 mg hGH, pigs, Average, 2 h): 17.10 ng/mL
hGH plasma levels (ViaDerm, Iontoph. × 5 Total 112.5 mg hGH, pigs, Average, 3 h): 25.32 ng/mL
hGH plasma levels (ViaDerm, Iontoph. × 5 Total 112.5 mg hGH, pigs, Average, 4 h): 28.41 ng/mL
hGH plasma levels (ViaDerm, Iontoph. × 5 Total 112.5 mg hGH, pigs, Average, 5 h): 32.80 ng/mL
hGH plasma levels (ViaDerm, Iontoph. × 5 Total 112.5 mg hGH, pigs, Average, 6 h): 23.23 ng/mL
hGH plasma levels (ViaDerm, Iontoph. × 5 Total 112.5 mg hGH, pigs, Average, 7 h): 29.06 ng/mL
hGH plasma levels (ViaDerm, Iontoph. × 5 Total 112.5 mg hGH, pigs, Average, 8 h): 14.55 ng/mL
hGH plasma levels (ViaDerm, Iontoph. × 5 Total 112.5 mg hGH, pigs, Average, 9 h): 12.65 ng/mL
hGH plasma levels (ViaDerm, Iontoph. × 5 Total 112.5 mg hGH, pigs, Average, 10 h): 10.75 ng/mL
hGH plasma levels (ViaDerm, Iontoph. × 5 Total 112.5 mg hGH, pigs, Average, 11 h): 8.06 ng/mL
hGH plasma levels (ViaDerm, Iontoph. × 5 Total 112.5 mg hGH, pigs, Average, 12 h): 5.13 ng/mL
average AUC value (pigs, SC group): 90.3 ng·h/mL
AUC [1]: 210.3 ng·h/mL
Cmax [1]: 32.8 ng/mL
Tmax [1]: 5 to 7 h
skin irritation at the drug and the reference electrode (pigs, ViaDerm and Iontophoresis treated group): no irritation was observed
